From paper PMC12350170 (2025)

Assays:
[1] = molecular target: T1, MBP-PHAX103–196 (wild type) (human, UniProt Q9H814 103-196); test: ITC
T1 chain: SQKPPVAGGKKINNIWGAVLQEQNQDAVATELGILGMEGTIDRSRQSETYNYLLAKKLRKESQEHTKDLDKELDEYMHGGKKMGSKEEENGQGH

[2] = molecular target: MBP-PHAX103–196 R147E, Y152E, Y154E (human, UniProt Q9H814 103-196, R147E | Y152E | Y154E); test: ITC; CBC bound to m7GpppG
[3] = molecular target: T1, MBP-PHAX103–196 (wild type); test: ITC; CBC bound to m7GpppG

B1: Human nuclear cap-binding complex (CBC): CBP80ΔNLS with CBP20 (complex)
chain 1: KTSDANETEDHLESLICKVGEKSACSLESNLEGLAGVLEADLPNYKSKILRLLCTVARLLPEKLTIYTTLVGLLNARNYNFGGEFVEAMIRQLKESLKANNYNEAVYLVRFLSDLVNCHVIAAPSMVAMFENFVSVTQEEDVPQVRRDWYVYAFLSSLPWVGKELYEKKDAEMDRIFANTESYLKRRQKTHVPMLQVWTADKPHPQEEYLDCLWAQIQKLKKDRWQERHILRPYLAFDSILCEALQHNLPPFTPPPHTEDSVYPMPRVIFRMFDYTDDPEGPVMPGSHSVERFVIEENLHCIIKSHWKERKTCAAQLVSYPGKNKIPLNYHIVEVIFAELFQLPAPPHIDVMYTTLLIELCKLQPGSLPQVLAQATEMLYMRLDTMNTTCVDRFINWFSHHLSNFQFRWSWEDWSDCLSQDPESPKPKFVREVLEKCMRLSYHQRILDIVPPTFSALCPANPTCIYKYGDESSNSLPGHSVALCLAVAFKSKATNDEIFSILKDVPNPNQDDDDDEGFSFNPLKIEVFVQTLLHLAAKSFSHSFSALAKFHEVFKTLAESDEGKLHVLRVMFEVWRNHPQMIAVLVDKMIRTQIVDCAAVANWIFSSELSRDFTRLFVWEILHSTIRKMNKHVLKIQKELEEAKEKLARQHKRRSDDDDRSSDRKDGVLEEQIERLQEKVESAQSEQKNLFLVIFQRFIMILTEHLVRCETDGTSVLTPWYKNCIERLQQIFLQHHQIIQQYMVTLENLLFTAELDPHILAVFQQFCALQA
chain 2: MSGGLLKALRSDSYVELSQYRDQHFRGDNEEQEKLLKKSCTLYVGNLSFYTTEEQIYELFSKSGDIKKIIMGLDKMKKTACGFCFVEYYSRADAENAMRYINGTRLDDRIIRTDWDAGFKEGRQYGRGRSGGQVRDEYRQDYDAGRGGYGKLAQNQ
Kd [1]: 1.86 µM
Kd [2]: 1.97 µM
Kd [3]: 1.45 µM
